Assay results published in US20070135338A1 (published 2007).
No end group written: not given here.

Target: GLP-1R on Rinm cells
Assay: cell-based or functional assay

cAMP activity in Rinm cells (EC50): 0.4 nM
Binder: HAEGTFTSDVSSYLEGQAAKEFIAWLVKGRG (not fully specified) [GLP-1 peptide]
